Laboratory results published in patent US20110172126A1, “LIBRARIES OF PEPTIDE CONJUGATES AND METHODS FOR MAKING THEM” (XENOME LTD, priority 2008, published 2011).
*1 amine or outer side, *2 acyl side, *3 side chain or, on linkers, in order; H or OH if unused. Bridges are numbered along the chain shown (N, C = ends). Where no end group is shown, it is not given here. [ ]: non-standard residue; d: D form. The star is where a group is joined. 12302 = turn inducer derived from (2S,4R)-Fmoc-4-amino-1-BOC-pyrrolidine-2-carboxylic acid, O=C([C@@H]1C[C@@H](N[*:1])CN1[*:3])[*:2]; Isovaleryl = CC(C)CC(=O)*

How the values were obtained:
Type in all cases: binding
[1] = molecular target: T1, rat sodium channel 1.2 (rNav1.2) (Rattus norvegicus, UniProt P04775); assay: rat Nav1.2 channel assay: competitive inhibition of 125H-TIIIA from rat brain homogenate; details: single concentration 10 μM
T1 construct: from tissue; host or cells: rat brain homogenate / rat brain membrane
Procedure: A homogeneous assay was used to determine the ability of compounds to act as inhibitors of the rat sodium channel 1.2 (rNav1.2) as measured by competitive inhibition of ^125H-TIIIA from rat brain homogenate.
Total assay volume was 80 μL (20 μL competing ligand, 20 μL, SPA beads, 20 μL rat brain homogenate and 20 μL iodinated ligand). Assay buffer used was HEPES (20 mM pH7.2), MgCl2 (75 mM), EDTA (0.2 mM), EGTA (0.2 mM), BSA (0.1%) and 2% diluted protease inhibitors (Roche cat #1826145). Peptides were initially screened at a single concentration of 10 μM. […] The competing ligands were added to the assay plate followed by Flashblue GPCR scintillating beads at a concentration of 100 μg/well (Perkin Elmer cat #FBB001), rat brain membrane and 30 pM ^125H-TIIIA. After the addition of all reagents the plate was sealed and incubated at RT for 1 h with shaking. The plate was then counted on a Wallac Microbeta instrument.

[2] = molecular target: T2, human norepinephrine transporter (hNET) (Homo sapiens, UniProt P23975); details: single concentration 10 μM, 3H-nisoxetine displacement
T2 construct: purchased Perkin Elmer Life Sciences RBHNETM400UA
Procedure: The ability of compounds to act as inhibitors of the human norepinephrine transporter (hNET) was measured by competitive inhibition of ^3H-nisoxetine from membrane expressing hNET.
Total assay volume 150 μL (50 μL peptide conjugate, 50 μL tritiated compound and 50 μL membrane) with each data point performed in triplicate. Assay buffer used was TrisHCl (50 mM, pH 7.4), NaCl (120 mM) and KCl (5 mM). Peptide conjugates were initially screened at a single concentration of 10 μM. […] After the addition of the membrane the assay was incubated for 1 h at RT after which the reaction was filtered onto GF filtermats B (Perkin Elmer cat #1450-521) pretreated with 0.6% PEI using a Tomtec cell harvester and washed 3 times using wash buffer (20 mM HEPES pH 7.4, 125 mM NaCl @ 4° C.). Filtermats were then dried, placed in a filter bag, 9 mL betaplate scintillant (Perkin Elmer cat #1205-440) added and filtermats counted on a Wallac Microbeta instrument.

[3] = molecular target: T3, human delta2 Opioid Receptor (hδ2OR) (Homo sapiens, UniProt P41143); assay: hδ2OR assay: competitive inhibition of 3H-Naltrindole from membrane expressing hδ2OR; details: single concentration 10 μM
T3 construct: purchased Perkin Elmer Life Sciences RPNQ001
Procedure: A homogeneous assay was used to determine the ability of compounds to act as inhibitors of the hδ2OR as measured by competitive inhibition of ^3H-Naltrindole from membrane expressing hδ2OR.
Total assay volume was 80 μL (20 μL competing ligand, 20 μL SPA beads, 20 μL, membrane and 20 μL tritiated ligand). Assay buffer used was Tris HCl (50 mM, pH 7.4), MgCl2 (5 mM) and BSA (0.1%). Peptides were initially screened at a single concentration of 10 μM. Confirmation of any hits was performed using full dose response of the peptide using various concentrations (10^−4 to 10^−11M) or control ligand (Naltriben). The competing ligands were added to the assay plate followed by SPA beads at a concentration of 100 μg/well (GE Healthcare, Amersham Cat. #FBB001) and […] (Perkin Elmer Life Sciences Cat #RPNQ001). This was followed by 1.6 nM […] [for a final concentration 0.4 nM] (Perkin Elmer Cat #NET1065), after which the plate was sealed and incubated at RT for 1 hr with shaking. The plate was then counted on a Wallac Microbeta instrument.

T3 sequence (P41143 whole entry): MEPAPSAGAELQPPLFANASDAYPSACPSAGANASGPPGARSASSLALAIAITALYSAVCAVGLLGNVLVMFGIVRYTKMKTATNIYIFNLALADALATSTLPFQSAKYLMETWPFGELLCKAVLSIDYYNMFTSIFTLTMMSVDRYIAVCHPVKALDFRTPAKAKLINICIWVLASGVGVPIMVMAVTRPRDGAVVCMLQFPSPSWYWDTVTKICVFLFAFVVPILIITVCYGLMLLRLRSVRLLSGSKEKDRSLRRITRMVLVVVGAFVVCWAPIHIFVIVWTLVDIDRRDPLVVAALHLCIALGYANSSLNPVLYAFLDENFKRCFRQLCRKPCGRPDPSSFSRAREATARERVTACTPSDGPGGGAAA
T1 sequence (P04775 whole entry): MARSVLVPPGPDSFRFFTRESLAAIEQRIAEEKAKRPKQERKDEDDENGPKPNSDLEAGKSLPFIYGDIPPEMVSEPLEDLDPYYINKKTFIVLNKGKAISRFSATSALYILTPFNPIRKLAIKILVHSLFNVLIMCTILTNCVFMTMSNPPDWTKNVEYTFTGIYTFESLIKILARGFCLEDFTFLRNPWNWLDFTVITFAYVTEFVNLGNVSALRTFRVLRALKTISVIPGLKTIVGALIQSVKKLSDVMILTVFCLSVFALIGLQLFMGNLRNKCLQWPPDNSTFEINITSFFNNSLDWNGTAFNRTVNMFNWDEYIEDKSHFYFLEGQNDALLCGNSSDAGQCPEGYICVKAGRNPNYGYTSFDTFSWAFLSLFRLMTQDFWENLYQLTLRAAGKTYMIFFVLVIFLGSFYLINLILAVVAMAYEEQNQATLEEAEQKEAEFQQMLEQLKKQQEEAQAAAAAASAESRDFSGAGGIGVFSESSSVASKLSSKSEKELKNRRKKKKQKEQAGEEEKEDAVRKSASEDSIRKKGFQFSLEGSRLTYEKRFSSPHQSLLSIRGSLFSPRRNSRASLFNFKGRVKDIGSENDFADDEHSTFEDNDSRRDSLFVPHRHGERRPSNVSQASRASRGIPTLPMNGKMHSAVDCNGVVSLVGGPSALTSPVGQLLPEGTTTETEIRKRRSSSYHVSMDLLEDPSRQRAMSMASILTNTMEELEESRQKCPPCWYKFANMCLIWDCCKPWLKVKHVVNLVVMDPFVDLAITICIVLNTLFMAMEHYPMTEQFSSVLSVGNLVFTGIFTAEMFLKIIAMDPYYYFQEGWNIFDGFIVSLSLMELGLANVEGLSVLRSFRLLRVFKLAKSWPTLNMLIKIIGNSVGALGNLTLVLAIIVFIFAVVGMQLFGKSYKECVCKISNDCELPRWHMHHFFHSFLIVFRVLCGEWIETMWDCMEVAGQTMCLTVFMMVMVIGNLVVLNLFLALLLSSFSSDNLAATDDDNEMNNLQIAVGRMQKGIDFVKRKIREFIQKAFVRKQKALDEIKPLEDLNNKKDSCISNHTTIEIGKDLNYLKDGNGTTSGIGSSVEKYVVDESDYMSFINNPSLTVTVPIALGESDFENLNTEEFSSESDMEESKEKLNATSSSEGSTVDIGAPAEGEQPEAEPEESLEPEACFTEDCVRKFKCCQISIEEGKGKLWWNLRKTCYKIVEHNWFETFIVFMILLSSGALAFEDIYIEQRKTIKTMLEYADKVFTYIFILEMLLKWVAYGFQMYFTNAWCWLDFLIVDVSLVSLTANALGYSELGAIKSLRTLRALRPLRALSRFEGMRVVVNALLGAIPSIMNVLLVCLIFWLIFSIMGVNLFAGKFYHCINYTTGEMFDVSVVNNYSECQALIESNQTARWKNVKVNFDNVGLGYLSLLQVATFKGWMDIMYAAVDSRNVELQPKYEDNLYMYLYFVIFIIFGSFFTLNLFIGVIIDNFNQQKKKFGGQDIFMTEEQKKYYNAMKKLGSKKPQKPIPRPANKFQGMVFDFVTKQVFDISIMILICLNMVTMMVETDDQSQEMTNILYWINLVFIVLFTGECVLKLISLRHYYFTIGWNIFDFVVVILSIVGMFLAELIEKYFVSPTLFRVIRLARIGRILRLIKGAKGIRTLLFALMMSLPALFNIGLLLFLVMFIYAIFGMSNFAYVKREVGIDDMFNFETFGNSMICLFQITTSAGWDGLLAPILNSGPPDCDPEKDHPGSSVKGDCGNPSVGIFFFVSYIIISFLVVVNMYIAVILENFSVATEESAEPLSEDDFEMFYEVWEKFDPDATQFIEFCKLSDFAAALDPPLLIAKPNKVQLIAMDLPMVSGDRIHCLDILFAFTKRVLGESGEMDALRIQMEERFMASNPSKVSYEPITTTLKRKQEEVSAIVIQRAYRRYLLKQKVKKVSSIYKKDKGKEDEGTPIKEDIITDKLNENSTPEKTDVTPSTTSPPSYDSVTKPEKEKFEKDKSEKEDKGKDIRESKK
T2 sequence (P23975 whole entry): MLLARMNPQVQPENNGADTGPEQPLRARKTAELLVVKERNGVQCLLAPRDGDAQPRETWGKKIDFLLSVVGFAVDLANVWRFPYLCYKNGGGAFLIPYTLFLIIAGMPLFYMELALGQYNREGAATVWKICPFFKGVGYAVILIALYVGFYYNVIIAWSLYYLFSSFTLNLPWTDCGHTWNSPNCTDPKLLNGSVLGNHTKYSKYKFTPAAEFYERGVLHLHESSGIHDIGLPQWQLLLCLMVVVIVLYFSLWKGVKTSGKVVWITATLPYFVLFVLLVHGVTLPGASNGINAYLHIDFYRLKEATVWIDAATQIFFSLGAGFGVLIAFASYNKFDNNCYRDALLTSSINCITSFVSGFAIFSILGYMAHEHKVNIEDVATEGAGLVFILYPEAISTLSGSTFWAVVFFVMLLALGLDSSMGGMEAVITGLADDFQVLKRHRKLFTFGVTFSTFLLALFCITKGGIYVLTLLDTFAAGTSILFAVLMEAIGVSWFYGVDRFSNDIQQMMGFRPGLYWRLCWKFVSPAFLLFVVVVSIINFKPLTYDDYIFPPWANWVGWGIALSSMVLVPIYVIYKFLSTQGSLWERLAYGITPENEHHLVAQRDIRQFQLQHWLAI

6 (CV[H2NNH:CHNH(CH2)3CO]KC; disulfide 1-5 (inferred); not fully specified) [compound 6]
% inhib @ 10 μM [1]: >70%
% inhib @ 10 μM [2]: 94%

46 (CF[12302](cyclohex‑CH2—CO)YC; disulfide 1-5 (inferred)) [compound 46]
% inh @ 10 μM [3]: >80%

47 (CF[12302](Isovaleryl)YC; disulfide 1-5 (inferred)) [compound 47]
% inh @ 10 μM [3]: >80%
